Molecular target: nascent, unphosphorylated PKC species (PDK1 binding, Fig. S9C) (UniProt P68403)

B1: PDK1 (enzyme)
chain: MARTTSQLYDAVPIQSSVVLCSCPSPSMVRTQTESSTPPGIPGGSRQGPAMDGTAAEPRPGAGSLQHAQPPPQPRKKRPEDFKFGKILGEGSFSTVVLARELATSREYAIKILEKRHIIKENKVPYVTRERDVMSRLDHPFFVKLYFTFQDDEKLYFGLSYAKNGELLKYIRKIGSFDETCTRFYTAEIVSALEYLHGKGIIHRDLKPENILLNEDMHIQITDFGTAKVLSPESKQARANSFVGTAQYVSPELLTEKSACKSSDLWALGCIIYQLVAGLPPFRAGNEYLIFQKIIKLEYDFPEKFFPKARDLVEKLLVLDATKRLGCEEMEGYGPLKAHPFFESVTWENLHQQTPPKLTAYLPAMSEDDEDCYGNYDNLLSQFGCMQVSSSSSSHSLSASDTGLPQRSGSNIEQYIHDLDSNSFELDLQFSEDEKRLLLEKQAGGNPWHQFVENNLILKMGPVDKRKGLFARRRQLLLTEGPHLYYVDPVNKVLKGEIPWSQELRPEAKNFKTFFVHTPNRTYYLMDPSGNAHKWCRKIQEVWRQRYQSHPDAAVQ
fold binding relative to the phosphorylated form: 2 fold

Reference: publication PMC8208635
